Data: patent US20220089698A1 (published 2022)
Where a chain is given by its changes, count along the chain named.

B1: 1.31.1-1 (antibody, human IgG1, kappa)
heavy: QVQLVQSGAEVTKPGASVRVSCEASGYNIRDYFIHWWRQAPGQGLQWVGWINPKTGQPNNPRQFQGRVSLTRHASWDFDTFSFYMDLKALRSDDTATYFCARQRSDYWDFDVWGSGTQVTVSSASTKGPSVFPLAPSSKSTSGGTAALGCLVKDYFPEPVTVSWNSGALTSGVHTFPAVLQSSGLYSLSSVVTVPSSSLGTQTYICNVNHKPSNTKVDKKVEPKSCDKTHTCPPCPAPELLAGPDVFLFPPKPKDTLMISRTPEVTCVVVDVSHEDPEVKFNWYVDGVEVHNAKTKPREEQYNSTYRVVSVLTVLHQDWLNGKEYKCKVSNKALPLPEEKTISKAKGQPREPQVYTLPPSREEMTKNQVSLTCLVKGFYPSDIAVEWESNGQPENNYKTTPPVLDSDGSFFLYSKLTVDKSRWQQGNVFSCSVLHEALHSHYTQKSLSLSPGK
light: DIQMTQSPSSLSASVGDTVTITCQANGYLNWYQQRRGKAPKLLIYDGSKLERGVPSRFSGRRWGQEYNLTINNLQPEDIATYFCQVYEFVVPGTRLDLKRTVAAPSVFIFPPSDEQLKSGTASVVCLLNNFYPREAKVQWKVDNALQSGNSQESVTEQDSKDSTYSLSSTLTLSKADYEKHKVYACEVTHQGLSSPVTKSFNRGEC
B2: 1.1.33-1 (antibody, human IgG1, kappa)
heavy: B1 heavy with V5L, E10A, T97V
light: B1 light with K49N, N68T, N72S, N73S, R95N, L98I
B3: 1.33.1-1 (antibody, human IgG1, kappa)
heavy: B1 heavy with T12K, E23K, S69T
light: B1 light
B4: 1.35.31-1 (antibody, human IgG1, kappa)
heavy: B1 heavy with T12K, E23K, I34M, S69T, L70M, K88S, A89R, S105T, S115Q, Q118M
light: B1 light with N68T, N72S, N73S, R95N
B5: 1.36.1-1 (antibody, human IgG1, kappa)
heavy: QVQLVQSGAEVKKPGASVRVSCKASGYNIRDYFMHWWRQAPGQGLQWVGWINPKTGQPNNPRQFQGRVTMTRHASWDFDTFSAYMDLSRLRSDDTATYFCARQRTDYWDFDVWGQGTMVTVSSASTKGPSVFPLAPSSKSTSGGTAALGCLVKDYFPEPVTVSWNSGALTSGVHTFPAVLQSSGLYSLSSVVTVPSSSLGTQTYICNVNHKPSNTKVDKKVEPKSCDKTHTCPPCPAPELLAGPDVFLFPPKPKDTLMISRTPEVTCVVVDVSHEDPEVKFNWYVDGVEVHNAKTKPREEQYNSTYRVVSVLTVLHQDWLNGKEYKCKVSNKALPLPEEKTISKAKGQPREPQVYTLPPSREEMTKNQVSLTCLVKGFYPSDIAVEWESNGQPENNYKTTPPVLDSDGSFFLYSKLTVDKSRWQQGNVFSCSVLHEALHSHYTQKSLSLSPGK
light: B1 light
B6: 1.34.31-1 (antibody, human IgG1, kappa)
heavy: B1 heavy with T12K, E23K, S69T, T97V, S105T
light: B1 light with N68T, N72S, N73S, R95N
B7: 1.35.1-1 (antibody, human IgG1, kappa)
heavy: B5 heavy with A83F
light: B1 light
B8: 1.1.31-1 (antibody, human IgG1, kappa)
heavy: B1 heavy with V5L, E10A, T97V
light: B1 light with N68T, N72S, N73S, R95N
B9: 1.31.31-1 (antibody, human IgG1, kappa)
heavy: B1 heavy
light: B1 light with N68T, N72S, N73S, R95N
B10: 1.34.32-1 (antibody, human IgG1, kappa)
heavy: B1 heavy with T12K, E23K, S69T, T97V, S105T
light: B1 light with N68T, N72S, N73S, V91T
B11: 1.1.32-1 (antibody, human IgG1, kappa)
heavy: B1 heavy with V5L, E10A, T97V
light: B1 light with N68T, N72S, N73S, V91T
B12: 1.32.32-1 (antibody, human IgG1, kappa)
heavy: B1 heavy with T97V, S105T
light: B1 light with N68T, N72S, N73S, V91T
B13: 1.1.34-1 (antibody, human IgG1, kappa)
heavy: B1 heavy with V5L, E10A, T97V
light: B1 light with K49N, N68T, N72S, N73S, V91T, L98I
B14: 1.33.31-1 (antibody, human IgG1, kappa)
heavy: B1 heavy with T12K, E23K, S69T
light: B1 light with N68T, N72S, N73S, R95N
B15: 1.31.32-1 (antibody, human IgG1, kappa)
heavy: B1 heavy
light: B1 light with N68T, N72S, N73S, V91T
B16: 1.34.33-1 (antibody, human IgG1, kappa)
heavy: B1 heavy with T12K, E23K, S69T, T97V, S105T
light: B1 light with K49N, N68T, N72S, N73S, R95N, L98I
B17: 1.36.32-1 (antibody, human IgG1, kappa)
heavy: B5 heavy
light: B1 light with N68T, N72S, N73S, V91T
B18: 1.32.31-1 (antibody, human IgG1, kappa)
heavy: B1 heavy with T97V, S105T
light: B1 light with N68T, N72S, N73S, R95N
B19: 1.32.33-1 (antibody, human IgG1, kappa)
heavy: B1 heavy with T97V, S105T
light: B1 light with K49N, N68T, N72S, N73S, R95N, L98I
B20: 1.33.33-1 (antibody, human IgG1, kappa)
heavy: B1 heavy with T12K, E23K, S69T
light: B1 light with K49N, N68T, N72S, N73S, R95N, L98I
B21: 1.32.34-1 (antibody, human IgG1, kappa)
heavy: B1 heavy with T97V, S105T
light: B1 light with K49N, N68T, N72S, N73S, V91T, L98I
B22: 1.32.1-1 (antibody, human IgG1, kappa)
heavy: B1 heavy with T97V, S105T
light: B1 light
B23: 1.35.33-1 (antibody, human IgG1, kappa)
heavy: B5 heavy with A83F
light: B1 light with K49N, N68T, N72S, N73S, R95N, L98I
B24: 1.35.32-1 (antibody, human IgG1, kappa)
heavy: B5 heavy with A83F
light: B1 light with N68T, N72S, N73S, V91T
B25: 1.33.32-1 (antibody, human IgG1, kappa)
heavy: B1 heavy with T12K, E23K, S69T
light: B1 light with N68T, N72S, N73S, V91T
B26: 1.31.34-1 (antibody, human IgG1, kappa)
heavy: B1 heavy
light: B1 light with K49N, N68T, N72S, N73S, V91T, L98I
B27: 1.31.33-1 (antibody, human IgG1, kappa)
heavy: B1 heavy
light: B1 light with K49N, N68T, N72S, N73S, R95N, L98I
B28: 1.34.1-1 (antibody, human IgG1, kappa)
heavy: B1 heavy with T12K, E23K, S69T, T97V, S105T
light: B1 light

Target: HIV gp120 CAAN (HIV)
Test: single-point ELISA; note: test concentration or dose not given here

Going from B1 to B2, the “ELISA (A450)” value rises from 0.92 A450 to 0.94 A450.

First: B3
Second: B4
The “ELISA (A450)” value of the first is lower: 0.98 A450 for the first, 0.99 A450 for the second.

Compared with B5, B6 is higher in “ELISA (A450)” value: 0.75 A450 for the first, 0.92 A450 for the second.

Compared with B7, B8 is higher in “ELISA (A450)” value: 0.87 A450 for the first, 0.96 A450 for the second.

First: B9
Second: B10
The “ELISA (A450)” value of the first is higher: 1.02 A450 for the first, 0.97 A450 for the second.

Going from B11 to B12, the “ELISA (A450)” value falls from 1.04 A450 to 0.9 A450.

First: B13
Second: B14
The “ELISA (A450)” value of the first is lower: 0.96 A450 for the first, 1.18 A450 for the second.

B15 and B16 are the same in “ELISA (A450)” value: 1.04 A450 for the first, 1.04 A450 for the second.

First: B17
Second: B18
The “ELISA (A450)” value of the first is lower: 0.5 A450 for the first, 0.9 A450 for the second.

First: B19
Second: B20
The “ELISA (A450)” value of the first is lower: 0.68 A450 for the first, 1.06 A450 for the second.

Going from B21 to B22, the “ELISA (A450)” value falls from 0.86 A450 to 0.83 A450.

First: B23
Second: B24
The “ELISA (A450)” value of the first is lower: 0.91 A450 for the first, 1.01 A450 for the second.

First: B25
Second: B26
The “ELISA (A450)” value of the first is higher: 1.13 A450 for the first, 0.86 A450 for the second.

Going from B27 to B28, the “ELISA (A450)” value rises from 0.86 A450 to 0.9 A450.

Target: HIV gp120 Bal (HIV)
Test: single-point ELISA; note: test concentration or dose not given here

Compared with B1, B2 is higher in “ELISA (A450)” value: 0.82 A450 for the first, 0.87 A450 for the second.

Going from B3 to B4, the “ELISA (A450)” value rises from 0.88 A450 to 1.05 A450.

First: B5
Second: B6
The “ELISA (A450)” value of the first is higher: 1.13 A450 for the first, 0.91 A450 for the second.

First: B7
Second: B8
The “ELISA (A450)” value of the first is lower: 0.84 A450 for the first, 0.87 A450 for the second.

First: B9
Second: B10
The “ELISA (A450)” value of the first is higher: 0.98 A450 for the first, 0.93 A450 for the second.

First: B11
Second: B12
The “ELISA (A450)” value of the first is higher: 0.93 A450 for the first, 0.89 A450 for the second.

Going from B13 to B14, the “ELISA (A450)” value rises from 0.9 A450 to 0.92 A450.

Compared with B15, B16 is higher in “ELISA (A450)” value: 0.98 A450 for the first, 1.1 A450 for the second.

First: B17
Second: B18
The “ELISA (A450)” value of the first is higher: 0.96 A450 for the first, 0.95 A450 for the second.

Compared with B19, B20 is higher in “ELISA (A450)” value: 0.93 A450 for the first, 1.09 A450 for the second.

Going from B21 to B22, the “ELISA (A450)” value rises from 0.81 A450 to 0.93 A450.

Going from B23 to B24, the “ELISA (A450)” value rises from 0.9 A450 to 0.96 A450.

Going from B25 to B26, the “ELISA (A450)” value falls from 0.98 A450 to 0.76 A450.

First: B27
Second: B28
The “ELISA (A450)” value of the first is higher: 0.89 A450 for the first, 0.83 A450 for the second.
